In test [1] the target is 2C11 human monoclonal antibody. The experiment in a line: competition ELISA: 2C11 preincubated with peptide at 20 (µM per paragraph 93), then on immobilised FVIII. (In an ELISA, binding on a coated surface is turned into a signal by an enzyme label.)
Test [2] deals with 2C11 human monoclonal antibody. The experiment in a line: competition ELISA: 2C11 preincubated with peptide at 0.002 (µM per paragraph 93), then on immobilised FVIII.
The target of test [3] is 2C11 human monoclonal antibody. The experiment in a line: competition ELISA: 2C11 preincubated with peptide at 2 (µM per paragraph 93), then on immobilised FVIII.
Test [4] concerns the target 2C11 human monoclonal antibody. Kind of test: competition ELISA: 2C11 preincubated with peptide at 0.02 (µM per paragraph 93), then on immobilised FVIII.
For test [5], the target named is 2C11 human monoclonal antibody. Kind of test: competition ELISA: 2C11 preincubated with peptide at 200 (µM per paragraph 93), then on immobilised FVIII.
Test [6] has as its target 2C11 human monoclonal antibody. Kind of test: cell-based or functional assay.

Data on seven molecules can be found in patent publication US20050124544A1.

Usually % inhibition stands for the change of the read-out against control, counted positive when it falls.

Where no end group is shown, it is not given here.

For Ac-CSKWHNRSKRHC (cysteine pairing not given here) [peptide 105 (…)], the % inhibition in test [1] is 45%; in test [2], 0%; in test [3] it was 10.3%; in test [4], 0%; in test [5] it was 75.6%.

With Ac-SCHAWSNRRTCR (cysteine pairing not given here) [peptide 107 (…)], the % inhibition in test [1] was found to be 80%; in test [2], 0%; in test [3], 37.3%; in test [4] it was 0%; in test [5], 90.5%. For the same molecule, the Bethesda test: neutralization of the inhibiting activity of 2C11 (3.5 nM), IC50 in test [6] was 19 µM. Moreover, the Bethesda test: peptide concentration for total neutralization of 2C11 (3.5 nM) in test [6] stood at 100 µM. Moreover, the in vivo (FVIII-deficient mice): procoagulant activity of injected FVIII kept with 2C11 (16.7 nM) plus peptide 107 (650 µM) in test [6] is 52%.

Turning to Ac-KCGRWSNRSSCT (cysteine pairing not given here) [peptide 103 (…)], the % inhibition in test [1] worked out at 28.3%; in test [2], 0%; in test [3] it was 3.47%; in test [4], 0%; in test [5], 62.7%.

Regarding Ac-CMKWSNRSSRWC (cysteine pairing not given here) [peptide 106 (…)], the % inhibition in test [1] is 22%; in test [2] it was 0%; in test [3] it was 0%; in test [4] it was 0%; in test [5], 36.6%.

Consider Ac-QCHTWSNRRSCL (cysteine pairing not given here) [peptide 108 (…)], for which the % inhibition stood at 26% in test [1]; 0% in test [2]; 15.8% in test [3]; 0% in test [4]; 60.7% in test [5].

As to Ac-RCHAWSNRKSCV (cysteine pairing not given here) [peptide 109 (…)], the % inhibition in test [1] was found to be 37.5%; in test [2], 0%; in test [3], 12.5%; in test [4], 0%; in test [5], 75%.

For the molecule Ac-ECGSHAWGRRCK (cysteine pairing not given here) [peptide 104 (…)], the % inhibition in test [1] is 30.7%; in test [2], 0%; in test [3], 13.4%; in test [4], 0%; in test [5] it was 63.7%.
